Assay results: patent US20210063414A1, “METHODS FOR PREVENTING AND/OR TREATING BONE LOSS CONDITIONS BY MODULATING IRISIN” (Dana-Farber Cancer Institute, Inc., priority 2018, published 2021)

What was measured:
Test in all cases: Crosslinking/co-immunoprecipitation/mass spectrometry (TMT quantitative proteomics) to identify irisin receptors
Assay type in all cases: binding
[1] = molecular target: T1, MLO-Y4 cell surface proteins (Mus musculus, UniProt P62960); conditions: co-precipitated protein Ybx1 (YBOX1_MOUSE)
T1 construct: endogenous in cells; host or cells: MLO-Y4
T1 sequence (P62960 whole entry): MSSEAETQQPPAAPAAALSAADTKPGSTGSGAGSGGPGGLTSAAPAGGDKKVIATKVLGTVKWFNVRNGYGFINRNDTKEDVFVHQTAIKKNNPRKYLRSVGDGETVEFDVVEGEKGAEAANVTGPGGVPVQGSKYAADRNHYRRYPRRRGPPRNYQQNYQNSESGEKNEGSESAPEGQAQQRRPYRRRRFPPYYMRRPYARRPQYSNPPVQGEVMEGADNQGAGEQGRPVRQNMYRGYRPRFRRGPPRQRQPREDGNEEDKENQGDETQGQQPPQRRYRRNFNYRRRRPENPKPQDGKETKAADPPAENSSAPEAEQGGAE
Summary of the method: (§1)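 Mouse MLO-Y4 cells were switched to serum-free FreeStyle medium for 4 h, chilled, then exposed to 10 nM His-tagged irisin (or adipsin as control) for 20 min. Cells were crosslinked with 1.5 mM DTSSP (30 min, ice), and bound proteins were pulled down on Ni-NTA and eluted with 250 mM imidazole. Eluates were separated by SDS-PAGE, trypsin-digested in gel, TMT 6-plex labelled and quantified by MS3-based LC-MS/MS on an Orbitrap Fusion Lumos.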

[2] = molecular target: T2, MLO-Y4 cell surface proteins (Mus musculus, UniProt Q8R1J9); conditions: co-precipitated protein Tor2a (TOR2A_MOUSE)
T2 construct: endogenous in cells; host or cells: MLO-Y4
T2 sequence (Q8R1J9 27-321): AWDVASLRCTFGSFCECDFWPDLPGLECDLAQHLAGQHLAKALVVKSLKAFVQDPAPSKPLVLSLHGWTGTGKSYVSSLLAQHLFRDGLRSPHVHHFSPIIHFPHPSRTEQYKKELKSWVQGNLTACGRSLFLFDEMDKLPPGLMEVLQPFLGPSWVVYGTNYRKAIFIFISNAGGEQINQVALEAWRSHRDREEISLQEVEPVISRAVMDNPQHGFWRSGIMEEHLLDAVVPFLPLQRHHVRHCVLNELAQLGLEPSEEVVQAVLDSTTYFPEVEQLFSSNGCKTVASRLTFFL
Summary of the method: as §1

[3] = molecular target: T3, MLO-Y4 cell surface proteins (Mus musculus, UniProt Q3U1J4); conditions: co-precipitated protein Ddb1 (DDB1_MOUSE)
T3 construct: endogenous in cells; host or cells: MLO-Y4
T3 sequence (Q3U1J4 whole entry): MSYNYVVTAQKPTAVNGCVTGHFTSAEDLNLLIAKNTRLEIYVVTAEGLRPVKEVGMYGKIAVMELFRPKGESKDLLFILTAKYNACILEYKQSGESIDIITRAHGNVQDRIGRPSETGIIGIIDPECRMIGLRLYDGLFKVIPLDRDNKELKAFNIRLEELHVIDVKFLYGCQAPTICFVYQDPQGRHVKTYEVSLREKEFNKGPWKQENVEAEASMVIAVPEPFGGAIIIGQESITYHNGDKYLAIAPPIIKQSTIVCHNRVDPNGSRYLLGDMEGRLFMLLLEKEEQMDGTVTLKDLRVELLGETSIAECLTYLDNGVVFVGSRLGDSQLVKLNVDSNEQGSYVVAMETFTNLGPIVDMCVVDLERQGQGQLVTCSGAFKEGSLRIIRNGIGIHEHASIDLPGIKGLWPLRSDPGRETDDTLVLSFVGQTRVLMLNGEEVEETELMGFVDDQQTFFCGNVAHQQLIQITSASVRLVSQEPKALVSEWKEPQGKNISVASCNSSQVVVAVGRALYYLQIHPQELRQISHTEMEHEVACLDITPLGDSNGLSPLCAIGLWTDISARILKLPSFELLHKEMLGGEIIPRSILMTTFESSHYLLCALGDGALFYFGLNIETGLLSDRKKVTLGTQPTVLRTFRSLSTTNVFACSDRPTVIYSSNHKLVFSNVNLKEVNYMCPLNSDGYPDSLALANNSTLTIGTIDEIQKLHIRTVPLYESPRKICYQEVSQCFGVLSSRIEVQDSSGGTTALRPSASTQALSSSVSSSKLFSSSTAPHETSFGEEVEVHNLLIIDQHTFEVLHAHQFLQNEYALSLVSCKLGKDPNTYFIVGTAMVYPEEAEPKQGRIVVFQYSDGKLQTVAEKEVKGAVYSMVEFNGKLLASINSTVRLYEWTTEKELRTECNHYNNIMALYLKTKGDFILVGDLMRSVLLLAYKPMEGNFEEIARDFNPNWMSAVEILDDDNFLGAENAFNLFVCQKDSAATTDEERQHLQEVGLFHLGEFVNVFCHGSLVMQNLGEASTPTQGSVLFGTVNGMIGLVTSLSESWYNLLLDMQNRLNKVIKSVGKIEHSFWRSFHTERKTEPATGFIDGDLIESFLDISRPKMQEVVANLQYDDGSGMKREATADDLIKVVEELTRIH
Summary of the method: as §1

[4] = molecular target: T4, MLO-Y4 cell surface proteins (Mus musculus, UniProt P60843); conditions: co-precipitated protein Eif4a1 (IF4A1_MOUSE)
T4 construct: endogenous in cells; host or cells: MLO-Y4
T4 sequence (P60843 whole entry): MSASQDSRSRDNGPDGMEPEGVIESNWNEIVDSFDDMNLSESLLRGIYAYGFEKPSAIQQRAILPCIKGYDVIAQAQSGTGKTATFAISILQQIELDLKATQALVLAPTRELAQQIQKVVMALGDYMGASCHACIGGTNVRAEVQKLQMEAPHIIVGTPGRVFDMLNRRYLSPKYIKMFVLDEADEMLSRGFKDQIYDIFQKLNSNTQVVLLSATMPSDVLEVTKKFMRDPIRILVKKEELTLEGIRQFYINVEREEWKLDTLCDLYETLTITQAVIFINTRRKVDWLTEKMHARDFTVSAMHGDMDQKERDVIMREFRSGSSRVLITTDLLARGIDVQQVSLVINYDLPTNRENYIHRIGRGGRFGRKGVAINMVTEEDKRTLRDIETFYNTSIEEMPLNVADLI
Summary of the method: as §1

[5] = molecular target: T5, MLO-Y4 cell surface proteins (Mus musculus, UniProt P48997); conditions: co-precipitated protein Ivl (INVO_MOUSE)
T5 construct: endogenous in cells; host or cells: MLO-Y4
T5 sequence (P48997 1-467): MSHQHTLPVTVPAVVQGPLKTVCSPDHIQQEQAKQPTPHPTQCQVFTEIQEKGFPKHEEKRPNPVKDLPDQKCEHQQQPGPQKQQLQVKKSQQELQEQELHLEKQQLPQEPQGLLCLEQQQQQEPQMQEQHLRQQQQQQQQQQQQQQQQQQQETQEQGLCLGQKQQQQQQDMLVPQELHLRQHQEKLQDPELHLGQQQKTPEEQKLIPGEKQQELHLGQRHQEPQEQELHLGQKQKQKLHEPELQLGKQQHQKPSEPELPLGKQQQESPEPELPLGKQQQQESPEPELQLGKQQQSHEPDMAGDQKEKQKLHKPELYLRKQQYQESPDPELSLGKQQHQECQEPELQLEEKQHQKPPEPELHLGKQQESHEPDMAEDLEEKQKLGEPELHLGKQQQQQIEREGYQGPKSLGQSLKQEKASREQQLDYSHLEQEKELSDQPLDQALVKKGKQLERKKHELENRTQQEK
Summary of the method: as §1

[6] = molecular target: T6, MLO-Y4 cell surface proteins (Mus musculus, UniProt P62880); conditions: co-precipitated protein Gnb2 (GBB2_MOUSE)
T6 construct: endogenous in cells; host or cells: MLO-Y4
T6 sequence (P62880 whole entry): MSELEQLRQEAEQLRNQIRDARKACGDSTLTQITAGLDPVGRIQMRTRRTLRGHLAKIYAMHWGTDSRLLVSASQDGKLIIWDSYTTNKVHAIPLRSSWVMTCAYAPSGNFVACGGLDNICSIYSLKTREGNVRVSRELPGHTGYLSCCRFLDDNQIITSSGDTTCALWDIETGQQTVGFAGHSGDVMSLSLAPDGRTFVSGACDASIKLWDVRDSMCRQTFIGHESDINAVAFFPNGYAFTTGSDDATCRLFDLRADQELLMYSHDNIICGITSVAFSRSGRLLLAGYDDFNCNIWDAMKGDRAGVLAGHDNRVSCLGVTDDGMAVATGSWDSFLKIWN
Summary of the method: as §1

[7] = molecular target: T7, MLO-Y4 cell surface proteins (Mus musculus, UniProt Q9DCW4); conditions: co-precipitated protein Etfb (ETFB_MOUSE)
T7 construct: endogenous in cells; host or cells: MLO-Y4
T7 sequence (Q9DCW4 1-255): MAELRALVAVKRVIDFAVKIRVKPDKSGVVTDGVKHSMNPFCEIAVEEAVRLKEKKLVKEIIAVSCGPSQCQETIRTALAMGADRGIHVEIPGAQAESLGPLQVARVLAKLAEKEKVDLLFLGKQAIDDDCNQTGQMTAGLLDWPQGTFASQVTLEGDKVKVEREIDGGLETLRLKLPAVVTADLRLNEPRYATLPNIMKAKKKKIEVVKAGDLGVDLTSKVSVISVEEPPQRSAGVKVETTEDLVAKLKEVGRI
Summary of the method: as §1

[8] = molecular target: T8, MLO-Y4 cell surface proteins (Mus musculus, UniProt E9Q0C6); conditions: co-precipitated protein Gm14569 (E9Q0C6_MOUSE)
T8 construct: endogenous in cells; host or cells: MLO-Y4
T8 sequence (E9Q0C6 whole entry): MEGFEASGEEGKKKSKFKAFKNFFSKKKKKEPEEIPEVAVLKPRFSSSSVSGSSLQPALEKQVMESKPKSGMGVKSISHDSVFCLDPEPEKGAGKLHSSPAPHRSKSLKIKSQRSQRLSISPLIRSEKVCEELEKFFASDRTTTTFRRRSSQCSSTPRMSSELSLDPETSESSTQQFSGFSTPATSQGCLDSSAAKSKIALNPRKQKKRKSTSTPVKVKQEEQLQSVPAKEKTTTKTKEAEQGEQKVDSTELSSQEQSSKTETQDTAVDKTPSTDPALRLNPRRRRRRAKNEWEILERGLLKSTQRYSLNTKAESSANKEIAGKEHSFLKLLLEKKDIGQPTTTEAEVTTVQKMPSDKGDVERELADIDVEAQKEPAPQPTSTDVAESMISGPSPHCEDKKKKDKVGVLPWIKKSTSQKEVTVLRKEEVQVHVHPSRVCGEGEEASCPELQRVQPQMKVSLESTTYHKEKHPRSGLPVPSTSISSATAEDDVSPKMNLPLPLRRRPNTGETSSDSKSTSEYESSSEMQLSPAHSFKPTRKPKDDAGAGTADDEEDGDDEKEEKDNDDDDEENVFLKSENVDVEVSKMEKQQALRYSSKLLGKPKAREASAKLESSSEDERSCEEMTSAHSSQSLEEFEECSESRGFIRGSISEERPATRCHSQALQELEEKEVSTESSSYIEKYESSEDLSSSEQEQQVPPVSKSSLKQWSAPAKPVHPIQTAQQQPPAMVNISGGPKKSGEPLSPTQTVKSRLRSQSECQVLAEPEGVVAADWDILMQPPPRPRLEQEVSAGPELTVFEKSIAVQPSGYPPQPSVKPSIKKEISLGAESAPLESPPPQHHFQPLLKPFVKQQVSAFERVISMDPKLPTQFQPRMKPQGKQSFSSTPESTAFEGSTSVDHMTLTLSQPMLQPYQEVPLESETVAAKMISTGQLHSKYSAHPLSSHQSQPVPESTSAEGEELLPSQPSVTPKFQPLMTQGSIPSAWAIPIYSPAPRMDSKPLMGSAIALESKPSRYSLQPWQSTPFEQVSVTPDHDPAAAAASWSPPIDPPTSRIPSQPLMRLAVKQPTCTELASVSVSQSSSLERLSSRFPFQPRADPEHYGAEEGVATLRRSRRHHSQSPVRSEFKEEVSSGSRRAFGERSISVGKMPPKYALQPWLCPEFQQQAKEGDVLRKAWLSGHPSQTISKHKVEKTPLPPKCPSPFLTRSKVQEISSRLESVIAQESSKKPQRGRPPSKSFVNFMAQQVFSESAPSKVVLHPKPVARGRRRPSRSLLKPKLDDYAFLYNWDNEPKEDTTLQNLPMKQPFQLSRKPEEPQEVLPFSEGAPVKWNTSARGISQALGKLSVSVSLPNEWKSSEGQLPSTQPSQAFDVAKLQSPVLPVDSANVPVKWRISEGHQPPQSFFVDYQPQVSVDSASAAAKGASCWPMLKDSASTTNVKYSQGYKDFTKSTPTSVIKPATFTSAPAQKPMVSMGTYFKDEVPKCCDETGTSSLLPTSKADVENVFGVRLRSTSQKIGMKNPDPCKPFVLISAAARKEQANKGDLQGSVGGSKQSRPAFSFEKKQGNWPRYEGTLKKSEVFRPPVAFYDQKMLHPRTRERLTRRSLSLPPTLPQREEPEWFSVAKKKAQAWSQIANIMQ
Summary of the method: as §1

TMT signal-to-noise ratio [1]: 219.172 | TMT signal-to-noise ratio [2]: 696.28 | TMT signal-to-noise ratio [3]: 426.44 | TMT signal-to-noise ratio [4]: 136.49 | TMT signal-to-noise ratio [5]: 222.079 | TMT signal-to-noise ratio [6]: 294.957 | TMT signal-to-noise ratio [7]: 730.275 | TMT signal-to-noise ratio [8]: 224.172
Substance: adipsin
